Sequences and labels used below:
T1: Full length human midkine protein (human) (UniProt P21741)
T1 sequence: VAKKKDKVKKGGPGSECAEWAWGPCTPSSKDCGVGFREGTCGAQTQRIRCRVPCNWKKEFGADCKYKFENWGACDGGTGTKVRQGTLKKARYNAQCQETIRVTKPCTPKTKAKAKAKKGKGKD

B1: Δ34 MDK (truncated human midkine lacking 34 amino acids from the C-terminus) (ligand)
chain: VAKKKDKVKKGGPGSECAEWAWGPCTPSSKDCGVGFREGTCGAQTQRIRCRVPCNWKKEFGADCKYKFENWGACDGGTGTKVRQGTLKK
B2: Δ58 MDK (truncated human midkine lacking 58 amino acids from the C-terminus) (ligand)
chain: VAKKKDKVKKGGPGSECAEWAWGPCTPSSKDCGVGFREGTCGAQTQRIRCRVPCNWKKEFGADCK
B3: Δ41 MDK (truncated human midkine lacking 41 amino acids from the C-terminus) (ligand)
chain: VAKKKDKVKKGGPGSECAEWAWGPCTPSSKDCGVGFREGTCGAQTQRIRCRVPCNWKKEFGADCKYKFENWGACDGGTGTKV
B4: Δ25 MDK (truncated human midkine lacking 25 amino acids from the C-terminus) (ligand)
chain: VAKKKDKVKKGGPGSECAEWAWGPCTPSSKDCGVGFREGTCGAQTQRIRCRVPCNWKKEFGADCKYKFENWGACDGGTGTKVRQGTLKKARYNAQCQE
B5: Δ14 MDK (truncated human midkine lacking 14 amino acids from the C-terminus) (ligand)
chain: VAKKKDKVKKGGPGSECAEWAWGPCTPSSKDCGVGFREGTCGAQTQRIRCRVPCNWKKEFGADCKYKFENWGACDGGTGTKVRQGTLKKARYNAQCQETIRVTKPCTPK

For the test, the target named is T1, Full length human midkine protein (human). As to the kind of experiment: cell-based or functional assay.
As for B1, the Total Area (area under the curve of wound width, Cell Migration Assay) is 768. The result for B2 reads 1990. Next, B3: 924. Next, B4: 1040; B5: 1710.

For the origin of these results see patent US20260049113A1.
